From PMC3273814 come the findings set out here.

For this data set, the system named is T1, Ms6564 (Mycobacterium smegmatis mc2 155), ORF:45299f77.
T1 sequence: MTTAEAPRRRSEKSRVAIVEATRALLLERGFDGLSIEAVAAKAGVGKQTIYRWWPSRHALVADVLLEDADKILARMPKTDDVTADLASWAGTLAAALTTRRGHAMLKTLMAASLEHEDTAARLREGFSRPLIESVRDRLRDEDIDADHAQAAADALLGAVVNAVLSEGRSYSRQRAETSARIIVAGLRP
Nature of the data set: DNase I footprinting.

As to “TTAAATCCGCTGGCCCCGATCACCAGTTTCGTCGCTGTCATAGGCCCTTGCGCTCGTGTCCTCGGGTCATAAACGAGACGGTACGTCTCGTCTTGTGGCAGAGTACGGGGTGTCACTTTTCGTGTAAAGGCCTGCGATGACCACCGCTGAAGCGCCCCGCCGGCGCAGTGAGAAGTCGCGGGTGGCCAT (double strand) [Ms6564p4 (p4-1 / p4-2)]”, the binding entry is “binds”.
